Results as given in article PMC9482650, “Quantitative fragmentomics allow affinity mapping of interactomes” (Nature Communications, 2022).

T1: APBA1_2, Q02410
T1 sequence (Q02410 742-832, limits assumed, looked up): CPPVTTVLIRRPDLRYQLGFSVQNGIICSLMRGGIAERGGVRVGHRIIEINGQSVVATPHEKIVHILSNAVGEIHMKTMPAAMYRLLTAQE

T2: APBA2_1, Q99767
T2 sequence (Q99767 563-664, limits assumed, looked up): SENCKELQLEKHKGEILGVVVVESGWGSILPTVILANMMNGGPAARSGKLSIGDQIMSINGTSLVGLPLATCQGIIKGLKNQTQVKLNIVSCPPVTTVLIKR

T3: DFNB31_1, Q9P202
T3 sequence (Q9P202 135-233, limits assumed, looked up): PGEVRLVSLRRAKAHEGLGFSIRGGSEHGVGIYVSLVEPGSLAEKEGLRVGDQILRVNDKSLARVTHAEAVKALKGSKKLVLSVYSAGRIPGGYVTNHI

T4: DFNB31_2, Q9P202
T4 sequence (Q9P202 274-371, limits assumed, looked up): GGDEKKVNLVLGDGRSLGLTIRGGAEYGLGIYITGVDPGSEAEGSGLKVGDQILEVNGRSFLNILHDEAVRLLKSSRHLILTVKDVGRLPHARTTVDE

T5: GRIP1_5, Q9Y3R0
T5 sequence (Q9Y3R0 568-668, limits assumed, looked up): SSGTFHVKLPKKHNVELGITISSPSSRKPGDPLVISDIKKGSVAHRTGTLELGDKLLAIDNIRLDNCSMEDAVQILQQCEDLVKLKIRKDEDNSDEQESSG

T6: HTRA4, P83105
T6 sequence (P83105 378-476, limits assumed, looked up): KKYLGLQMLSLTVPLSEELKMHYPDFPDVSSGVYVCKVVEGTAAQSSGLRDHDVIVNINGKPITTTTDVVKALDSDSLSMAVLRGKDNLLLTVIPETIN

T7: LNX2_3, Q8N448
T7 sequence (Q8N448 463-564, limits assumed, looked up): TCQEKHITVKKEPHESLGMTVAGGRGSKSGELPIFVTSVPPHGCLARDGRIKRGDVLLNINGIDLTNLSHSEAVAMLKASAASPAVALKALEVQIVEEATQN

T8: LRRC7, Q96NW7
T8 sequence (Q96NW7 1440-1537, limits assumed, looked up): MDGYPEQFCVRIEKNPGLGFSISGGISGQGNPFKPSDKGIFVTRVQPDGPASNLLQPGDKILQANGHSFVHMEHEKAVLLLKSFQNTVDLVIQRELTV

T9: NHERF3_1, Q5T2W1
T9 sequence (Q5T2W1 4-100, limits assumed, looked up): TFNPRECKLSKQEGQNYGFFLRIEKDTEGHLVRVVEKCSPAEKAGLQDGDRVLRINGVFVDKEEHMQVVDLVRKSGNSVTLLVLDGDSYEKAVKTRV

T10: PDZD7_3, Q9H5P4
T10 sequence (Q9H5P4 857-944, limits assumed, looked up): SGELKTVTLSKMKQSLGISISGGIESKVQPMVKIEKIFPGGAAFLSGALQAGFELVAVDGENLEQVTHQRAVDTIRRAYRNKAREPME

T11: SIPA1L2, Q9P2F8
T11 sequence (Q9P2F8 945-1036, limits assumed, looked up): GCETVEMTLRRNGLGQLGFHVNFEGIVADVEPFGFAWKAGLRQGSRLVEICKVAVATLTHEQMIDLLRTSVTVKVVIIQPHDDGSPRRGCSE

T12: TIAM2, Q8IVF5
T12 sequence (Q8IVF5 885-986, limits assumed, looked up): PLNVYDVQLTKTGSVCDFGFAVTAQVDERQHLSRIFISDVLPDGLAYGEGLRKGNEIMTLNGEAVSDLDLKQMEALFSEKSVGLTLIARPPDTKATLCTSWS

T13: TJP3_3, O95049
T13 sequence (O95049 375-456, limits assumed, looked up): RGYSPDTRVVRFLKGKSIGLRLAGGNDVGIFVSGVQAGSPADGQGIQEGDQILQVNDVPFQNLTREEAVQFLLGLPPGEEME


Assays:
Assay in all cases: holdup assay
Design in all cases: key: below the threshold = too weak to quantify, mostly under pKd 3.1 to 4
Details in all cases: plain residues with an end cap or a label only (N-terminal biotin on a linker: ado-ado)
APBA1_2, Q02410 = biological target: T1, APBA1_2, Q02410
APBA2_1, Q99767 = biological target: T2, APBA2_1, Q99767
CASK, O14936 = biological target: CASK, O14936
Sequence of CASK, O14936 (O14936 487-570): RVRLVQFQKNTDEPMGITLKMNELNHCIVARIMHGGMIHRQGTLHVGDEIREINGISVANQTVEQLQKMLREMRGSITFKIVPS

DFNB31_1, Q9P202 = biological target: T3, DFNB31_1, Q9P202
DFNB31_2, Q9P202 = biological target: T4, DFNB31_2, Q9P202
DLG1_1, Q12959 = biological target: DLG1_1, Q12959
DLG1_2, Q12959 = biological target: DLG1_2, Q12959
DLG1_3, Q12959 = biological target: DLG1_3, Q12959
GIPC2, Q8TF65 = biological target: GIPC2, Q8TF65
Sequence of GIPC2, Q8TF65 (Q8TF65 112-203): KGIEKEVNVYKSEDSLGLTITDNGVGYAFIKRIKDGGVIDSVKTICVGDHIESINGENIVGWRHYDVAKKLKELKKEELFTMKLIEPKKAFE

GRIP1_5, Q9Y3R0 = biological target: T5, GRIP1_5, Q9Y3R0
GRIP2_6, Q9C0E4 = biological target: GRIP2_6, Q9C0E4
Sequence of GRIP2_6, Q9C0E4 (Q9C0E4 648-740): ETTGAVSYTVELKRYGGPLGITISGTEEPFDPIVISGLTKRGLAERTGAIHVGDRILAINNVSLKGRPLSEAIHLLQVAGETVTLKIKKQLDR

HTRA4, P83105 = biological target: T6, HTRA4, P83105
Inadl_3, Q8NI35 = biological target: Inadl_3, Q8NI35
Sequence of Inadl_3, Q8NI35 (Q8NI35 359-469): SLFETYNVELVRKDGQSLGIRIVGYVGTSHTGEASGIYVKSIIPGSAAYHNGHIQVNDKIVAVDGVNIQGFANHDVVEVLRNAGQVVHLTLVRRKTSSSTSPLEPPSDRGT

LNX2_3, Q8N448 = biological target: T7, LNX2_3, Q8N448
LRRC7, Q96NW7 = biological target: T8, LRRC7, Q96NW7
MAGI2_6, Q86UL8 = biological target: MAGI2_6, Q86UL8
Sequence of MAGI2_6, Q86UL8 (Q86UL8 1141-1229): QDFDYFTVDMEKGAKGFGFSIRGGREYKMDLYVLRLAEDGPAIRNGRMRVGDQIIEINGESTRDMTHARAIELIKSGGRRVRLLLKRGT

MAST1, Q9Y2H9 = biological target: MAST1, Q9Y2H9
Sequence of MAST1, Q9Y2H9 (Q9Y2H9 962-1065): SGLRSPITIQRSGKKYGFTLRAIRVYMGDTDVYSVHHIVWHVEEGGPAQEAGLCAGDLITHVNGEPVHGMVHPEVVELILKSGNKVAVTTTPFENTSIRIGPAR

NHERF2_2, Q15599 = biological target: NHERF2_2, Q15599
Sequence of NHERF2_2, Q15599 (Q15599 142-238): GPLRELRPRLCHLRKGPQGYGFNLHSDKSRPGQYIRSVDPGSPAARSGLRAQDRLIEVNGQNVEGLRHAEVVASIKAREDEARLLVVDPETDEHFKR

NHERF3_1, Q5T2W1 = biological target: T9, NHERF3_1, Q5T2W1
NHERF4_2, Q86UT5 = biological target: NHERF4_2, Q86UT5
Sequence of NHERF4_2, Q86UT5 (Q86UT5 220-308): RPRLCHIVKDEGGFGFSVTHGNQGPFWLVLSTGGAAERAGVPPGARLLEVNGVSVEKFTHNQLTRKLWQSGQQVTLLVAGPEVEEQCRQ

PDZD7_3, Q9H5P4 = biological target: T10, PDZD7_3, Q9H5P4
SCRIB_1, Q14160 = biological target: SCRIB_1, Q14160
Sequence of SCRIB_1, Q14160 (Q14160 718-814): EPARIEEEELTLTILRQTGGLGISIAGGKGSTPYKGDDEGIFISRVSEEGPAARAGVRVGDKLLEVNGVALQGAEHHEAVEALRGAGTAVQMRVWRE

SIPA1L2, Q9P2F8 = biological target: T11, SIPA1L2, Q9P2F8
TIAM2, Q8IVF5 = biological target: T12, TIAM2, Q8IVF5
TJP3_3, O95049 = biological target: T13, TJP3_3, O95049

Binder	pKd (APBA1_2, Q02410)	pKd (APBA2_1, Q99767)	pKd (CASK, O14936)	pKd (DFNB31_1, Q9P202)	pKd (DFNB31_2, Q9P202)	pKd (DLG1_1, Q12959)	pKd (DLG1_2, Q12959)	pKd (DLG1_3, Q12959)	pKd (GIPC2, Q8TF65)	pKd (GRIP1_5, Q9Y3R0)	pKd (GRIP2_6, Q9C0E4)	pKd (HTRA4, P83105)	pKd (Inadl_3, Q8NI35)	pKd (LNX2_3, Q8N448)	pKd (LRRC7, Q96NW7)	pKd (MAGI2_6, Q86UL8)	pKd (MAST1, Q9Y2H9)	pKd (NHERF2_2, Q15599)	pKd (NHERF3_1, Q5T2W1)	pKd (NHERF4_2, Q86UT5)	other results
TGLWKSETTV [ADGRA2, Q96PE1]	3.57	below the threshold	below the threshold	3.64	below the threshold	4.85	5.26	4.38	4.04	below the threshold	below the threshold	below the threshold	3.97	below the threshold	3.56	3.85	4.68	below the threshold	below the threshold	below the threshold	pKd (PDZD7_3, Q9H5P4): 4.65; pKd (SCRIB_1, Q14160): 4.34; pKd (SIPA1L2, Q9P2F8): below the threshold; pKd (TIAM2, Q8IVF5): below the threshold; pKd (TJP3_3, O95049): below the threshold
FTLPAESSEI [PLEKHG7, Q6ZR37]	below the threshold	below the threshold	below the threshold	4.39	below the threshold	below the threshold	below the threshold	below the threshold	below the threshold	below the threshold	below the threshold	3.5	below the threshold	below the threshold	below the threshold	below the threshold	4.53	below the threshold	3.52	below the threshold	pKd (PDZD7_3, Q9H5P4): 3.97; pKd (SCRIB_1, Q14160): below the threshold; pKd (SIPA1L2, Q9P2F8): below the threshold; pKd (TIAM2, Q8IVF5): 4.04; pKd (TJP3_3, O95049): below the threshold
NLQEHSTTSV [RSBN1, Q5VWQ0]	3.58	below the threshold	below the threshold	3.72	below the threshold	3.5	3.99	3.76	below the threshold	below the threshold	below the threshold	below the threshold	below the threshold	below the threshold	below the threshold	4.16	4.76	3.59	below the threshold	below the threshold	pKd (PDZD7_3, Q9H5P4): 4; pKd (SCRIB_1, Q14160): 3.58; pKd (SIPA1L2, Q9P2F8): below the threshold; pKd (TIAM2, Q8IVF5): below the threshold; pKd (TJP3_3, O95049): below the threshold
HLRQQGSVEV [EPHB6, O15197]	3.99	below the threshold	below the threshold	below the threshold	below the threshold	below the threshold	3.52	below the threshold	below the threshold	below the threshold	3.93	4.39	below the threshold	below the threshold	below the threshold	below the threshold	below the threshold	below the threshold	below the threshold	below the threshold	pKd (PDZD7_3, Q9H5P4): below the threshold; pKd (SCRIB_1, Q14160): below the threshold; pKd (SIPA1L2, Q9P2F8): below the threshold; pKd (TIAM2, Q8IVF5): below the threshold; pKd (TJP3_3, O95049): below the threshold
